For 1 molecule, EC50 results are on record in US6465188, “Nucleic acid ligand complexes” (Gilead Sciences, Inc.).

The target in this data set is VEGF (vascular endothelial growth factor) (UniProt P15692-4 P15692-4:27-191). Briefly: competition; competition ELISA apparent ED50; reduction attributed to geometry of liposome display. The note with it: chain copies: 2. Background: ELISA stands for enzyme-linked immunosorbent assay.
Chain of VEGF (vascular endothelial growth factor) (P15692 other isoform, or with tags, fused parts or gaps): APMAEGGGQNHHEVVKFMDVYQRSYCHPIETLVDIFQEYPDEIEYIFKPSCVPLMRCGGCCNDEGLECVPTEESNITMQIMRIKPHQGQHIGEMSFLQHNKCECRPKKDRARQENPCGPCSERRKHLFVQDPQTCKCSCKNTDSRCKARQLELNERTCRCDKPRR

B1: NX278-Liposome (mixed)
mixed: TTTTACCCUGAUGGUAGACGCCGGGGUGTTTTT
modifications: 5'-dialkylglycerol (DAG), embedded in DSPC:cholesterol liposome; PS at 1-4 and 29-33; 2'-OMe at 5,13,16,17,20,23-26,28; 2'-NH2 at 6-9,12,15,19,21,22,27
For orientation: EC50 means the concentration that produces a half-maximal response. Regarding B1, the half-maximal effective concentration (EC50) was about 100 nM.
